Experimental data taken from patent US20180344844A1 (SCHOLAR ROCK, published 2018).
Like-named read-outs stand apart in the source and are kept apart here.

Columns and labels:
[1] = target: T1, proGDF8 (human) (human, UniProt O14793 24-375); test: cell-based or functional assay
[2] = target: T2, proGDF8 (mouse) (mouse, UniProt O08689 25-376); test: cell-based or functional assay
[3] = target: T2, proGDF8 (mouse); test: cell-based or functional assay; remark: listed apart in the source
[4] = target: T3, proGDF11 (human) (human, UniProt O95390 25-407); test: ForteBio Octet BLI; biotinylated antigen on streptavidin tip, Ab1 in solution
T3 construct: domain: proGDF11 (prodomain plus growth factor domain)

[5] = target: T4, Pro Activin A (human, UniProt P08476 21-426); test: as above
T4 construct: domain: pro form (prodomain plus growth factor domain)
T4 sequence (looked up): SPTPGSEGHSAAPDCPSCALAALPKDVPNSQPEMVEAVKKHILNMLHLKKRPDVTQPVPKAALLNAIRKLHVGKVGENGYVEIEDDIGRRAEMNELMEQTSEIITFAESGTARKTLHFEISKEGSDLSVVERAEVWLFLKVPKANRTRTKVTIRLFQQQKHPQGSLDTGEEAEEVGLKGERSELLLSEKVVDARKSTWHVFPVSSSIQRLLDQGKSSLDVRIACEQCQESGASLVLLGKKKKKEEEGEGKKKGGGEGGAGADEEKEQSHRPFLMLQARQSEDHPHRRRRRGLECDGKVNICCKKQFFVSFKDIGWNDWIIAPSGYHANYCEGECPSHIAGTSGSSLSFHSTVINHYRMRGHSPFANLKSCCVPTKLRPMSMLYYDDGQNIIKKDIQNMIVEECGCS

[6] = target: T5, Mature GDF8 (UniProt O14793 267-375, limits assumed); test: ForteBio Octet BLI; antigen on the tip (direct amine coupling), Ab1 in solution
T5 construct: mature; Amine-coupled to the biosensor tips; also called mature myostatin; mature growth factor of Myostatin

[7] = target: T6, Mature GDF11 (UniProt O95390 299-407, limits assumed); test: as above
T6 construct: mature; also called GDF11 mature growth factor

[8] = target: T7, Mature Activin A (UniProt P08476 311-426); test: as above
T7 construct: mature; also called Activin A growth factor
T7 sequence (looked up): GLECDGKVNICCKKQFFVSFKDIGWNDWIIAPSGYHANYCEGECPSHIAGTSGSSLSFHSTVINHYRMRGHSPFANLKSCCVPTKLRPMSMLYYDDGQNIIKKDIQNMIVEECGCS

[9] = target: T8, BMP 9 (UniProt Q9UK05 320-429, limits assumed); test: as above
T8 construct: mature
T8 sequence (looked up): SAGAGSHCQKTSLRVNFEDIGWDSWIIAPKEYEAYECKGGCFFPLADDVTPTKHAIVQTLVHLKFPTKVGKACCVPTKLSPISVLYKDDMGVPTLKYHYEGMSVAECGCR

[10] = target: T9, BMP10 (UniProt O95393 317-424, limits assumed); test: as above
T9 construct: mature
T9 sequence (looked up): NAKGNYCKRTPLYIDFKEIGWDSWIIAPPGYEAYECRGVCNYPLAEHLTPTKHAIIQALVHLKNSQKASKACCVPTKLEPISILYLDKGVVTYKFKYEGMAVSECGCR

[11] = target: T10, Mature TGFB1 (UniProt P01137 279-390); test: as above
T10 construct: mature; also called mature TGFβ1

[12] = target: T3, proGDF11 (human); test: ForteBio BLI; biotinylated proGDF11 on streptavidin tip, 30 µg/mL antibody, response after 5 minutes of association relative to proGDF8
[13] = target: T1, proGDF8 (human); test: Octet binding kinetics to pro- and latent-Myostatin, compared with parental Ab1
[14] = target: T11, latent GDF8 (human) (human, UniProt O14793 24-266; O14793 267-375); test: as above
T11 construct: proGDF8 cleaved by a proprotein convertase; the split after 243 is inferred from that; also called human latent Myostatin; Human latent GDF8

[15] = target: T2, proGDF8 (mouse); test: cell-based or functional assay; remark: listed apart in the source
[16] = target: T5, Mature GDF8; test: ForteBio Octet BLI; antigen on biosensor, antibody in solution
[17] = target: T6, Mature GDF11; test: as above
[18] = target: T4, Pro Activin A; test: as above
[19] = target: T7, Mature Activin A; test: as above
[20] = target: T8, BMP 9; test: as above
[21] = target: T9, BMP10; test: as above
[22] = target: T10, Mature TGFB1; test: as above

B1: Ab9 (antibody, V domains shown)
VH: QVQLVQSGAEVKKPGSSVKVSCKASGGTFSSYAISWVRQAPGQGLEWMGGIIPIFGTANYAQKFQGRVTITADESTSTAYMELSSLRSEDTAVYYCANHGLMDDSSGYYLSNAFDIWGQGTMVTVSS
VL: not shown
B1 was tested, and the “Human proGDF8 IC50 (µM) Reporter assay” value [1] was 12.2 µM and the “Murine proGDF8 IC50 (µM) Reporter assay” value [2] was 19.9 µM.

B2: Ab1 parental antibody, IgG4 (S228P), lambda (antibody, V domains shown)
VH: QIQLVQSGGGVVQPGRSLRLSCAASGFTFSSYGMHWVRQAPGKGLEWVAVISYDGSNKYYADSVKGRFTISRDNSKNTLYLQMNSLRAEDTAVYYCARDLLVRFLEWSHYYGMDVWGQGTTVTVSS
VL: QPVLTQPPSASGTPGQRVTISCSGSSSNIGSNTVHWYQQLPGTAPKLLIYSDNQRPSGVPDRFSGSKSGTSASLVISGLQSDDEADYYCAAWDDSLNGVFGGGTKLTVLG
notes: also called parental Ab1 IgG4; 24H4 (WT); copies: 2 + 2
For B2, the “Activity Assay - 293T cells EC50” value [3] was 839 nM, the binding result [4] was “no binding (tested: 50 ug/mL)” and the binding result [5] was “no binding (tested: 50 ug/mL)”. B2: no binding (tested: 50 ug/mL) [6]; no binding (tested: 50 ug/mL) [7]; no binding (tested: 50 ug/mL) [8]. B2: no binding (tested: 50 ug/mL) [9]; no binding (tested: 50 ug/mL) [10]; no binding (tested: 50 ug/mL) [11]. The “GDF11 response, expressed as a percentage of GDF8 response” value [12] was 1.33%.

B3: Ab3 (affinity optimized variant of Ab1, parental frameworks) (antibody, IgG4, V domains shown)
VH: QIQLVQSGGGVVQPGRSLRLSCAASGFAFSSYGMHWVRQAPGKGLEWVAVISYDGSIKYYADSVKGRFTISRDNSKNTLYLQMNSLRAEDTAVYYCARDLLVRFLEWSHKYGMDVWGQGTTVTVSS
VL: QPVLTQPPSASGTPGQRVTISCSGSTSNIGSNTVHWYQQLPGTAPKLLIYSDDQRPSGVPDRFSGSKSGTSASLVISGLQSDDEADYYCAAWDESLNGVFGGGTKLTVLG
notes: also called Ab3 parental; copies: 2 + 2
B3: binds [13]; binds [14].

B4: Ab5 (affinity optimized variant of Ab1, parental frameworks) (antibody, IgG4, V domains shown)
VH: QIQLVQSGGGVVQPGRSLRLSCAASGFAFSSYGMHWVRQAPGKGLEWVAVISYDGNNKYYADSVKGRFTISRDNSKNTLYLQMNSLRAEDTAVYYCARDLLVRFLEWSHKYGMDVWGQGTTVTVSS
VL: QPVLTQPPSASGTPGQRVTISCSGSSSNIGGNTVHWYQQLPGTAPKLLIYSDDQRPSGVPDRFSGSKSGTSASLVISGLQSDDEADYYCAAWDESLNGVFGGGTKLTVLG
notes: also called Ab5 parental; copies: 2 + 2
B4: binds [13]; binds [14].

B5: Ab4 (Ab3 with germline framework residues), IgG4 (S228P), lambda (antibody, V domains shown)
VH: QVQLVESGGGVVQPGRSLRLSCAASGFAFSSYGMHWVRQAPGKGLEWVAVISYDGSIKYYADSVKGRFTISRDNSKNTLYLQMNSLRAEDTAVYYCARDLLVRFLEWSHKYGMDVWGQGTTVTVSS
VL: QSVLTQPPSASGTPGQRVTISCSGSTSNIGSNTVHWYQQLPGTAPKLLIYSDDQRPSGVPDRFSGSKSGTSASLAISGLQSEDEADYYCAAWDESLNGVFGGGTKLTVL
notes: human IgG4/lambda framework with S228P; also called Ab4 germline
B5 was tested, and the “Activity Assay - 293T cells EC50” value [15] was 447 nM, the binding result [16] was “no binding (tested: 50 µg/mL)” and the binding result [17] was “no binding (tested: 50 µg/mL)”. B5: no binding (tested: 50 µg/mL) [18]; no binding (tested: 50 µg/mL) [19]; no binding (tested: 50 µg/mL) [20]. For the same binder, the binding result [21] was “no binding (tested: 50 µg/mL)”, the binding result [22] was “no binding (tested: 50 µg/mL)” and the “GDF11 response, expressed as a percentage of GDF8 response” value [12] was 2.51%.

B6: Ab6 (Ab5 with germline framework residues), IgG4 (S228P), lambda (antibody, V domains shown)
VH: QVQLVESGGGVVQPGRSLRLSCAASGFAFSSYGMHWVRQAPGKGLEWVAVISYDGNNKYYADSVKGRFTISRDNSKNTLYLQMNSLRAEDTAVYYCARDLLVRFLEWSHKYGMDVWGQGTTVTVSS
VL: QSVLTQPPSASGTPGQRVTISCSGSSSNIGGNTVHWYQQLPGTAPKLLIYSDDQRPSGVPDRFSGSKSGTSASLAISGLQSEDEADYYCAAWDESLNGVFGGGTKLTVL
notes: human IgG4/lambda framework with S228P; also called Ab6 germline
B6: no binding (tested: 50 µg/mL) [16]; no binding (tested: 50 µg/mL) [17]; no binding (tested: 50 µg/mL) [18]. B6: no binding (tested: 50 µg/mL) [19]; no binding (tested: 50 µg/mL) [20]; no binding (tested: 50 µg/mL) [21]. The binding result [22] was “no binding (tested: 50 µg/mL)” and the “GDF11 response, expressed as a percentage of GDF8 response” value [12] was 2.07%.

B7: Ab7 (antibody, V domains shown)
VH: QVQLQQSGAEVKKPGASVKVSCKASGYTFTSYYMHWVRQAPGQGLEWMGIINPSGGSTSYAQKFQGRVTMTRDTSTSTVYMELSSLRSEDTAVYYCARESLIRFLEDPQQGGMDVWGQGTTVTVSS
VL: QSALTQPASVSGSPGQSLTISCTGTSSDIGGYNYVSWYQQHPGKAPKLIIYDVTDRPSGVSGRFSGSKSGNTASLTISGLQTEDEAEYFCNSWTRSNNYIFGGGTKLTVLG
B7 was tested, and the “Human proGDF8 IC50 (µM) Reporter assay” value [1] was 0.983 µM and the “Murine proGDF8 IC50 (µM) Reporter assay” value [2] was 1.68 µM.

B8: Ab8 (antibody, V domains shown)
VH: QIQLVQSGAEVKKPGASVKVSCKASGYTFTSYGISWVRQAPGQGLEWMGWISAYNGNTNYAQKLQGRVTMTTDTSTSTAYMELSSLRSEDTAVYYCARVGFYDYVWGSYPYDAFDIWGQGTMVTVSS
VL: EIVMTQSPGTLSLSPGERATLSCRASQSVSSNYLAWYQQKPGQAPRLLIYDASNRATGIPARFSGSGSGTDFTLTISSLEPEDFALYYCQQYGTSPLTFGGGTKLEIKR
For B8, the “Human proGDF8 IC50 (µM) Reporter assay” value [1] was 6.04 µM and the “Murine proGDF8 IC50 (µM) Reporter assay” value [2] was 139 µM.

B9: Ab10 (antibody, V domains shown)
VH: EVQLVQSGGGVVQSGRSLRLSCVASGFSFSNYGMHWVRQAPGKGLEWLAFIWYDGSNKWYADSVKGRFTISRDNSKNALYLQMNSLRAEDTAVYYCARDRYSSSWGGGFDYWGQGTVLTVSS
VL: NFMLTQPHSVSESPGRTVTIPCSGRGGSIASDSVQWYQQRPGSAPTTIIYEDNQRPSGVPDRFSGSVDSSSNSASLTISGLRTEDEADYYCQSYDASSLWVFGGKTKLTVLG
In the case of B9, the “Human proGDF8 IC50 (µM) Reporter assay” value [1] is reported as 0.772 µM.
